From patent US20260055195A1 (COUNCIL OF THE QUEENSLAND INSTITUTE OF MEDICAL RESEARCH, published 2026)

T1: EphA3 expressed on tumour cell lines (LK63, U251, D270) (UniProt P29320 21-983)
T1 construct: whole, on cells; also called EphA3 on LK63 cells; EphA3 on U251 cells
T1 sequence (looked up): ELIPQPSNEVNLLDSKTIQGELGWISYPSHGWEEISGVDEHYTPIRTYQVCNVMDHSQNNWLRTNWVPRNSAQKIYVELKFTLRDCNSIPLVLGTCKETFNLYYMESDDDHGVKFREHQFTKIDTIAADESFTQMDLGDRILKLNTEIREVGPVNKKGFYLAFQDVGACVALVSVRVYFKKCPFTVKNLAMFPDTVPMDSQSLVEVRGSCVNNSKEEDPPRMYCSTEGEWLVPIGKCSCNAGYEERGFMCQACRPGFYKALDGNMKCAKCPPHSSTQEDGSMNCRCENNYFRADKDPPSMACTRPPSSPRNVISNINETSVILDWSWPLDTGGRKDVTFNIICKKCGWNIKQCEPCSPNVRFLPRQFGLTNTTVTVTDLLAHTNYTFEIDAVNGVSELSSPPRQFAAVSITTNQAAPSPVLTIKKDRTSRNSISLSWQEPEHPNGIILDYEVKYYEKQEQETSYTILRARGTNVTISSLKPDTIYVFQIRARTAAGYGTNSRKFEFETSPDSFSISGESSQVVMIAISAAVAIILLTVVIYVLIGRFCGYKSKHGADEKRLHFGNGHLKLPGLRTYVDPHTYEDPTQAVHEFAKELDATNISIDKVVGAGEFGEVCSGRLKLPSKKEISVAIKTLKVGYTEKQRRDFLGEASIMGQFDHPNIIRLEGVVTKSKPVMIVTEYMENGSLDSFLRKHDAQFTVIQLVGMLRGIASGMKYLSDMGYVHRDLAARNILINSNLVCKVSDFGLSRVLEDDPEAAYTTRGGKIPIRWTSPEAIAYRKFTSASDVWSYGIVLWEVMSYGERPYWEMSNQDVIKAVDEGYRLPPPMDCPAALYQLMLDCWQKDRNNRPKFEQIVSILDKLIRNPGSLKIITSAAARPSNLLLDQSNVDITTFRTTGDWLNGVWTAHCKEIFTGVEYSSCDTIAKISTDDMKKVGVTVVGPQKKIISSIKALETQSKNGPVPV


How the values were obtained:
[1] = molecular target: T1, EphA3 expressed on tumour cell lines …; assay: flow cytometry, subclone supernatant on LK63 cells
[2] = molecular target: T1, EphA3 expressed on tumour cell lines …; assay: flow cytometry on glioma cell lines D270 and U251

binding result [1]	binding result [2]	Binder
binds		Clone 2D4-1 anti-EphA3 monoclonal antibody (antibody, V domains shown, Mouse hybridoma monoclonal, screened as subclone supernatant) VH: QVHLKESGPGLVAPSQSLSITCTVSGFSLTGYGVNWIRQPPGKNLEWLGMIWGDGSTDYNSVLKSRLSISKDNAKSQVFLEMNSLQTDDTANYYCARDRGISYYYAMDYWGQGTSVTVSS VL: DIVLTQSPASLAVSLGQRATISCRASKSVSASGYSYLHWYQQKPGQPPKLLIFLAYNLGSGVPARFSGSGAGTDFTLNIHPVEEEDAATYYCQHSREFPLTFGAGTKLELK
	binds	Clone 3C3-1 anti-EphA3 monoclonal antibody (antibody, V domains shown, Mouse hybridoma monoclonal, screened as subclone supernatant) VH: QVQLQQSGAELARPGASVKMSCKSSGYTFTIYTIHWVKQRPGQGLEWIGYINPSSDYTNYNQKFKDKATLTADKSSTTAYMQLSSLTSEDSAVYYCVREGAYGNYDFAMDYWGQGTSVTVSS VL: DVLMTQTPLSLPVSLGDQASISCRSSQNIVHNNGNTYLEWYLQKPGQSPKLLIYKVSNRFSGVPDRFSGSGSGTDFTLKISRVEAEDLGVYYCFQTSHVPYTFGGGTKLEIK
